Assay results from paper PMC12618484 (Nature Communications, 2025).
Substitutions are numbered along the chain they refer to. Numbers in names are those of the source.

Assays:
[1] = target: T1, dihydrolipoamide dehydrogenase (DLD) (Homo sapiens, UniProt P09622); experiment: bio-layer interferometry and SPR; format: binding
T1 sequence (P09622 36-509): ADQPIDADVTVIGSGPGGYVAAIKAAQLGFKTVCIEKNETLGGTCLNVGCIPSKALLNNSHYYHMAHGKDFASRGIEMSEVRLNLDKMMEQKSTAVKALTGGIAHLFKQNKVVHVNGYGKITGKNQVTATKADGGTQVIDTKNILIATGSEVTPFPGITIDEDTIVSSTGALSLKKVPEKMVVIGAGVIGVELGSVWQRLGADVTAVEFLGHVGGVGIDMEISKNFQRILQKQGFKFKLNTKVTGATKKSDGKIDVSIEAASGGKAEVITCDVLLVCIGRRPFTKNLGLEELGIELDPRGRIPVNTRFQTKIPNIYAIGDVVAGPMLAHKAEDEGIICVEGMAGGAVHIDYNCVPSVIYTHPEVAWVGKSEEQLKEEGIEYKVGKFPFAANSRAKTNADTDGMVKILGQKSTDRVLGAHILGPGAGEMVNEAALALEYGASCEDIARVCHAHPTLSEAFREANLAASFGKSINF

cross-linking = target: the molecule itself; experiment: cross-linking

O=C(O)CCCCC(CCSCc1ccccc1)SCc1ccccc1 (stereo not drawn) [devimistat]
Kd [1]: 500 to 600 nM

B1: HA-tagged DLD-K430Q (enzyme, human, UniProt P09622 36-509, looked up)
chain: T1 sequence (P09622 36-509) with K395Q
stoichiometry N (cross-linking): 2

B2: HA-tagged DLD-K430R (enzyme, human, UniProt P09622 36-509, looked up)
chain: T1 sequence (P09622 36-509) with K395R
stoichiometry N (cross-linking): 2
